According to patent US20120238493A1 (INDIANA UNIVERSITY RESEARCH AND TECHNOLOGY, published 2012):
*1 amine or outer side, *2 acyl side, *3 side chain or, on linkers, in order; H or OH if unused. Where no end group is shown, it is not given here. Side-chain parts run from the residue outwards. [ ]: non-standard residue; d: D form. The star is where a group is joined. γGlu = O=C(O)[C@H](CCC(=O)[*:2])N[*:1]; Palmitoyl = CCCCCCCCCCCCCCCC(=O)*; Myristoyl = CCCCCCCCCCCCCC(=O)*; Lauroyl = CCCCCCCCCCCC(=O)*; 40K‑ME = not defined here; 40K‑TE = not defined here; Ac3c = NC1(C(=O)O)CC1; Aib = CC(C)(N)C(=O)O

Experiments:
Experiment in all cases: cell-based or functional assay
glucagon receptor = glucagon receptor (UniProt P47871 26-477, limits assumed)
Sequence of glucagon receptor (P47871 26-477 limits assumed): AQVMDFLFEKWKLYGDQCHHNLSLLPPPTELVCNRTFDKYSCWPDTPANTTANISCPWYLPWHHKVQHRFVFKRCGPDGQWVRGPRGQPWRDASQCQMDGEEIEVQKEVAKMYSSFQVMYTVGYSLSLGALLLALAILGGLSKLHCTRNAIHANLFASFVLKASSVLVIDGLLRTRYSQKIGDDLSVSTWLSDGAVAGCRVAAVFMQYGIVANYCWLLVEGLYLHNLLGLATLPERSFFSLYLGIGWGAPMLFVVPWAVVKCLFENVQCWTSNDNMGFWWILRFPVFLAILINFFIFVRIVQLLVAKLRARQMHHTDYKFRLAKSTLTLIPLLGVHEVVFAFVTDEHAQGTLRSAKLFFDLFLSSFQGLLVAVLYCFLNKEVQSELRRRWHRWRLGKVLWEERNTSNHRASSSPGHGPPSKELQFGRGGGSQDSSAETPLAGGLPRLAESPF

GIP receptor = target: T1, GIP receptor (UniProt P48546 22-466, limits assumed)
T1 sequence (looked up): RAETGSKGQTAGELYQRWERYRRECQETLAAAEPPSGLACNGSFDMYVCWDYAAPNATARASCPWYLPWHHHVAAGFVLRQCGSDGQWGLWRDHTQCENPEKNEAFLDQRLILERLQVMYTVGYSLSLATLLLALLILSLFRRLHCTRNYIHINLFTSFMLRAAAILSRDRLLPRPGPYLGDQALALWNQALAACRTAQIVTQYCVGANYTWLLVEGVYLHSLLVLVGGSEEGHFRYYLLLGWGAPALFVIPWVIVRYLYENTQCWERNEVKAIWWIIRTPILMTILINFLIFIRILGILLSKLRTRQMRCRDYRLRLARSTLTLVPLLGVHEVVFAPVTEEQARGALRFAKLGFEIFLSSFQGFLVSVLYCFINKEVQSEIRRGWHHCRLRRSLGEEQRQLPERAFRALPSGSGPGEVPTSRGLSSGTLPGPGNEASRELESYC

GLP-1 receptor = GLP-1 receptor (UniProt P43220 24-463, limits assumed)

Y[Aib]EGTFISDYSIYLDKQAA[Aib]EFVNWLLAGGPSSGAPPPSC(40K‑TE)-NH2 (not fully specified; reading uncertain) [peptide of SEQ ID NO: 72]
EC50 (cAMP reporter) (glucagon receptor): 1.68 nM
EC50 (cAMP reporter) (GIP receptor): 0.035 nM
EC50 (cAMP reporter) (GLP-1 receptor): 2.69 nM

H[Aib]QGTFISDYSIYLDKQAA[Ac3c]EFVNWLLAGGPSSGAPPPSC(40K‑TE)-NH2 (not fully specified; reading uncertain) [peptide of SEQ ID NO: 74]
EC50 (cAMP reporter) (glucagon receptor): 2.52 nM
EC50 (cAMP reporter) (GIP receptor): 2.54 nM
EC50 (cAMP reporter) (GLP-1 receptor): 6.42 nM

B1: peptide of SEQ ID NO: 80 (peptide)
peptide: H[Aib]EGTFTSDK([γGlu-Palmitoyl])SKYLDERAAQDFVQWLLDGGPSSGAPPPS-NH2
modifications: N-terminus assumed
SMILES: CCCCCCCCCCCCCCCC(=O)N[C@@H](CCC(=O)NCCCC[C@H](NC(=O)[C@H](CC(=O)O)NC(=O)[C@H](CO)NC(=O)[C@@H](NC(=O)[C@H](Cc1ccccc1)NC(=O)[C@@H](NC(=O)CNC(=O)[C@H](CCC(=O)O)NC(=O)C(C)(C)NC(=O)[C@@H](N)Cc1c[nH]cn1)[C@@H](C)O)[C@@H](C)O)C(=O)N[C@@H](CO)C(=O)N[C@@H](CCCCN)C(=O)N[C@@H](Cc1ccc(O)cc1)C(=O)N[C@@H](CC(C)C)C(=O)N[C@@H](CC(=O)O)C(=O)N[C@@H](CCC(=O)O)C(=O)N[C@@H](CCCNC(=N)N)C(=O)N[C@@H](C)C(=O)N[C@@H](C)C(=O)N[C@@H](CCC(N)=O)C(=O)N[C@@H](CC(=O)O)C(=O)N[C@@H](Cc1ccccc1)C(=O)N[C@H](C(=O)N[C@@H](CCC(N)=O)C(=O)N[C@@H](Cc1c[nH]c2ccccc12)C(=O)N[C@@H](CC(C)C)C(=O)N[C@@H](CC(C)C)C(=O)N[C@@H](CC(=O)O)C(=O)NCC(=O)NCC(=O)N1CCC[C@H]1C(=O)N[C@@H](CO)C(=O)N[C@@H](CO)C(=O)NCC(=O)N[C@@H](C)C(=O)N1CCC[C@H]1C(=O)N1CCC[C@H]1C(=O)N1CCC[C@H]1C(=O)N[C@@H](CO)C(N)=O)C(C)C)C(=O)O
EC50 (cAMP reporter) (glucagon receptor): 1.28 nM
EC50 (cAMP reporter) (GIP receptor): 0.026 nM
EC50 (cAMP reporter) (GLP-1 receptor): 0.008 nM

Y[Aib]QGTFISDYSIYLDKQAA[Ac3c]EFVNWLLAGGPSSGAPPPSC(40K‑TE)-NH2 (not fully specified; reading uncertain) [peptide of SEQ ID NO: 75]
EC50 (cAMP reporter) (glucagon receptor): 3.12 nM
EC50 (cAMP reporter) (GIP receptor): 2.44 nM
EC50 (cAMP reporter) (GLP-1 receptor): 17.7 nM

Y[Aib]EGTFTSDYSIYLDKQAA[Aib]EFVNWLLAGGPSSGAPPPSC(PEG 40 kDa)-NH2 [peptide of SEQ ID NO: 175]
EC50 (cAMP reporter) (glucagon receptor): 0.62 nM
EC50 (cAMP reporter) (GIP receptor): 0.1 nM
EC50 (cAMP reporter) (GLP-1 receptor): 0.066 nM

Y[Aib]QGTFTSDK([γGlu-Palmitoyl])SIYLDKQAA[Aib]EFVNWLLAGGPSSGAPPPSC(40K‑ME)-NH2 (reading uncertain) [peptide of SEQ ID NO: 69]
EC50 (cAMP reporter) (glucagon receptor): 0.055 nM
EC50 (cAMP reporter) (GIP receptor): 0.015 nM
EC50 (cAMP reporter) (GLP-1 receptor): 0.02 nM

B2: peptide of SEQ ID NO: 59 (peptide)
peptide: Y[Aib]QGTFTSDYSIYLDKEAA[Aib]KFVNWLLAGGPSSGAPPPSC(40K‑TE)-NH2
modifications: lactam (positions not given here); reading uncertain; also: lactam between underlined residues, underlining not shown
EC50 (cAMP reporter) (glucagon receptor): 0.432 nM
EC50 (cAMP reporter) (GIP receptor): 0.122 nM
EC50 (cAMP reporter) (GLP-1 receptor): 0.063 nM

B3: peptide of SEQ ID NO: 81 (peptide)
peptide: Y[Aib]QGTFTSDK([γGlu-γGlu-Palmitoyl])SIYLDKQAA[Aib]EFVNWLLAGGPSSGAPPPS-NH2
modifications: N-terminus assumed
SMILES: CCCCCCCCCCCCCCCC(=O)N[C@@H](CCC(=O)N[C@@H](CCC(=O)NCCCC[C@H](NC(=O)[C@H](CC(=O)O)NC(=O)[C@H](CO)NC(=O)[C@@H](NC(=O)[C@H](Cc1ccccc1)NC(=O)[C@@H](NC(=O)CNC(=O)[C@H](CCC(N)=O)NC(=O)C(C)(C)NC(=O)[C@@H](N)Cc1ccc(O)cc1)[C@@H](C)O)[C@@H](C)O)C(=O)N[C@@H](CO)C(=O)N[C@H](C(=O)N[C@@H](Cc1ccc(O)cc1)C(=O)N[C@@H](CC(C)C)C(=O)N[C@@H](CC(=O)O)C(=O)N[C@@H](CCCCN)C(=O)N[C@@H](CCC(N)=O)C(=O)N[C@@H](C)C(=O)N[C@@H](C)C(=O)NC(C)(C)C(=O)N[C@@H](CCC(=O)O)C(=O)N[C@@H](Cc1ccccc1)C(=O)N[C@H](C(=O)N[C@@H](CC(N)=O)C(=O)N[C@@H](Cc1c[nH]c2ccccc12)C(=O)N[C@@H](CC(C)C)C(=O)N[C@@H](CC(C)C)C(=O)N[C@@H](C)C(=O)NCC(=O)NCC(=O)N1CCC[C@H]1C(=O)N[C@@H](CO)C(=O)N[C@@H](CO)C(=O)NCC(=O)N[C@@H](C)C(=O)N1CCC[C@H]1C(=O)N1CCC[C@H]1C(=O)N1CCC[C@H]1C(=O)N[C@@H](CO)C(N)=O)C(C)C)[C@@H](C)CC)C(=O)O)C(=O)O
EC50 (cAMP reporter) (glucagon receptor): 0.073 nM
EC50 (cAMP reporter) (GIP receptor): 0.005 nM
EC50 (cAMP reporter) (GLP-1 receptor): 0.008 nM

B4: peptide of SEQ ID NO: 58 (peptide)
peptide: Y[Aib]QGTFTSDYSIYLDKEAA[Aib]KFVNWLLAGGPSSGAPPPSC-NH2
modifications: lactam (positions not given here); also: lactam between underlined residues, underlining not shown
EC50 (cAMP reporter) (glucagon receptor): 0.063 nM
EC50 (cAMP reporter) (GIP receptor): 0.005 nM
EC50 (cAMP reporter) (GLP-1 receptor): 0.014 nM

B5: peptide of SEQ ID NO: 79 (peptide)
peptide: H[Aib]QGTFTSDK([γGlu-Palmitoyl])SKYLDERRA[Aib]EFVQWLLDGGPSSGAPPPS-NH2
modifications: N-terminus assumed
SMILES: CCCCCCCCCCCCCCCC(=O)N[C@@H](CCC(=O)NCCCC[C@H](NC(=O)[C@H](CC(=O)O)NC(=O)[C@H](CO)NC(=O)[C@@H](NC(=O)[C@H](Cc1ccccc1)NC(=O)[C@@H](NC(=O)CNC(=O)[C@H](CCC(N)=O)NC(=O)C(C)(C)NC(=O)[C@@H](N)Cc1c[nH]cn1)[C@@H](C)O)[C@@H](C)O)C(=O)N[C@@H](CO)C(=O)N[C@@H](CCCCN)C(=O)N[C@@H](Cc1ccc(O)cc1)C(=O)N[C@@H](CC(C)C)C(=O)N[C@@H](CC(=O)O)C(=O)N[C@@H](CCC(=O)O)C(=O)N[C@@H](CCCNC(=N)N)C(=O)N[C@@H](CCCNC(=N)N)C(=O)N[C@@H](C)C(=O)NC(C)(C)C(=O)N[C@@H](CCC(=O)O)C(=O)N[C@@H](Cc1ccccc1)C(=O)N[C@H](C(=O)N[C@@H](CCC(N)=O)C(=O)N[C@@H](Cc1c[nH]c2ccccc12)C(=O)N[C@@H](CC(C)C)C(=O)N[C@@H](CC(C)C)C(=O)N[C@@H](CC(=O)O)C(=O)NCC(=O)NCC(=O)N1CCC[C@H]1C(=O)N[C@@H](CO)C(=O)N[C@@H](CO)C(=O)NCC(=O)N[C@@H](C)C(=O)N1CCC[C@H]1C(=O)N1CCC[C@H]1C(=O)N1CCC[C@H]1C(=O)N[C@@H](CO)C(N)=O)C(C)C)C(=O)O
EC50 (cAMP reporter) (glucagon receptor): 0.004 nM
EC50 (cAMP reporter) (GIP receptor): 0.003 nM
EC50 (cAMP reporter) (GLP-1 receptor): 0.006 nM

Y[Aib]QGTFTSDK([γGlu-Myristoyl])SIYLDKQAA[Aib]EFVNWLLAGGPSSGAPPPSC(40K‑ME)-NH2 (reading uncertain) [peptide of SEQ ID NO: 68]
EC50 (cAMP reporter) (glucagon receptor): 50.1 nM
EC50 (cAMP reporter) (GIP receptor): 0.862 nM
EC50 (cAMP reporter) (GLP-1 receptor): 0.612 nM

YXEGTFTSDYSIYLDKQAAXEFVNWLLAGGPSSGAPPPSC (not fully specified; aib at 2; acpc at 20; C-terminal C(40K-TE); NH2) [peptide of SEQ ID NO: 73]
EC50 (cAMP reporter) (glucagon receptor): ~10 nM
EC50 (cAMP reporter) (GIP receptor): 1.56 nM
EC50 (cAMP reporter) (GLP-1 receptor): 0.91 nM

Y[Aib]QGTFTSDYSIYLDKQAA[Aib]EFVC(40K‑TE PEG)WLLAGGPSSGAPPPSK(C8)-NH2 [peptide of SEQ ID NO: 172]
EC50 (cAMP reporter) (glucagon receptor): 3.06 nM
EC50 (cAMP reporter) (GIP receptor): 0.487 nM
EC50 (cAMP reporter) (GLP-1 receptor): 0.108 nM

Y[Aib]QGTFTSDYSIYLDKQAA[Aib]EFVC(40K‑TE PEG)WLLAGGPSSGAPPPSK(Lauroyl)-NH2 [peptide of SEQ ID NO: 173]
EC50 (cAMP reporter) (glucagon receptor): 0.19 nM
EC50 (cAMP reporter) (GIP receptor): 0.089 nM
EC50 (cAMP reporter) (GLP-1 receptor): 0.011 nM

Y[Aib]QGTFTSDYSIYLDKQAA[Aib]EFVC(40K‑ME)WLLAGGPSSGAPPPSK(Palmitoyl)-NH2 (not fully specified; reading uncertain) [peptide of SEQ ID NO: 70]
EC50 (cAMP reporter) (glucagon receptor): 0.018 nM
EC50 (cAMP reporter) (GIP receptor): 0.014 nM
EC50 (cAMP reporter) (GLP-1 receptor): 0.007 nM
